{"source": "patent US20120252054A1", "about": "“SYSTEM FOR TRANSFORMATION OF THE CHLOROPLAST GENOME OF SCENEDESMUS SP. AND DUNALIELLA SP” (priority 2009, published 2012)", "molecules": {"B1": {"name": "endoxylanse: endoxylanase from T. reesei (BD11) expressed in the S. dimorphus chloroplast (protein)", "chain": "MVPVSFTSLLAASPPSRASCRPAAEVESVAVEKRQTIQPGTGYNNGYFYSYWNDGHGGVTYTNGPGGQFSVNWSNSGNFVGGKGWQPGTKNKVINFSGSYNPNGNSYLSVYGWSRNPLIEYYIVENFGTYNPSTGATKLGEVTSDGSVYDIYRTQRVNQPSIIGTATFYQYWSVRRNHRSSGSVNTANHFNAWAQQGLTLGTMDYQIVAVEGYFSSGSASITVSGTGDYKDDDDKSGENLYFQGHNHRHKHTG", "modifications": "codon optimized endoxylanase from T. reesei", "notes": "endoxylanase from T. reesei (BD11) expressed in the S. dimorphus chloroplast"}}, "experiment": "Endoxylanase enzyme function assay on clarified lysates", "format": "biochemical, T. reesei", "settings": "clarified lysates of S. dimorphus transformants (parent 2 and 4), normalized for total soluble protein, pH 4.8, 42 degrees Celsius", "protocol": "To determine if the endoxylanase produced by transformed algae cells was functional, endoxylanase activity was tested using an enzyme function assay. Briefly, algae cells were collected from TAP agar medium and suspended in BugBuster solution (Novagen). Cells were lysed by bead beating using zirconium beads. Cell lysates were clarified by centrifugation and the supernatants were normalized for total soluble protein (Coomassie Plus Protein Assay Kit, Thermo Scientific). 100 μL of each sample was mixed with 10 μL of 10× xylanase assay buffer (1M sodium acetate, pH=4.8) and 50 μL of the sample mixture was added to one well in a black 96-well plate. EnzCheck Ultra Xylanase substrate (Invitrogen) was dissolved at a concentration of 50 ug/ml in 100 mM sodium acetate pH 4.8, and 50 μL of substrate was added to each well of the microplate. The fluorescent signal was measured in a SpectraMax M2 microplate reader (Molecular Devices), with an excitation wavelength of 360 nm and an emission wavelength of 460 nm, without a cutoff filter and with the plate chamber set to 42 degrees Celsius. The fluorescence signal was measured for 15 minutes, and the enzyme velocity was calculated with Softmax Pro v5.2 (Molecular Devices). Enzyme velocities were recorded as RFU/minute. Enzyme specific activities were calculated as milliRFU per minute per μg of total soluble protein.", "data": [{"molecule": "B1", "values": [{"measurement": "endoxylanase activity in transformants relative to wild type cells", "result": "at least 4 fold"}]}]}
